US20240124519A1

Target: non-covalent complex of the soluble extracellular domain of human neonatal Fc receptor (FcRn) with C-terminal His-Avi Tag and human beta-2-microglobulin, biotinylated (human) (UniProt P55899)
Test: FcRn affinity chromatography, Fc part after IdeS cleavage and preparative SEC

non-covalent complex of the soluble extracellular domain of human neonatal Fc receptor (FcRn) with C-terminal His-Avi Tag and human beta-2-microglobulin, biotinylated (human), sequence (P55899 other isoform, or with tags, fused parts or gaps limits assumed, chain 1 of 2): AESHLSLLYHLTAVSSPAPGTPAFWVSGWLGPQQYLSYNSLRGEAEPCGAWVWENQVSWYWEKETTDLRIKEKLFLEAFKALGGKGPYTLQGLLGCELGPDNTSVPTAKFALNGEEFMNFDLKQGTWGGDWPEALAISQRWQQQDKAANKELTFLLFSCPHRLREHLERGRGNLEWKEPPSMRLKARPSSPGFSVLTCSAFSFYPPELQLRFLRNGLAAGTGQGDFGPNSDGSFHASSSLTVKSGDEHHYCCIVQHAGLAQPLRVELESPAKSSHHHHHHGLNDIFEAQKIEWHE
non-covalent complex of the soluble extracellular domain of human neonatal Fc receptor (FcRn) with C-terminal His-Avi Tag and human beta-2-microglobulin, biotinylated (human), sequence (b2m, as listed by the source limits assumed, chain 2 of 2): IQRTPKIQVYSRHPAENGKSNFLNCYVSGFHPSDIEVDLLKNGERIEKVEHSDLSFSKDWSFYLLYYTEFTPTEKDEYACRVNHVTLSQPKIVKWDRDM

## Fc part of anti-Abeta antibody (YTE mutant)
  retention time: 52 min
